From PMC8105673

Biological target: scavenger receptor CD36 (human (endogenous in THP-1)) (UniProt P16671)
Experiment: flow cytometry on cells; THP-1-derived M1 macrophages pre-incubated with 50 μM HSAUT, HSA_(HOCl) or buffer for 15 min at 0 °C (surface binding, no internalization), then stained with a PE-conjugated anti-CD36 blocking antibody; binding of HSA read indirectly as loss of antibody staining

Sequence of UniProt P16671 (P16671 whole entry): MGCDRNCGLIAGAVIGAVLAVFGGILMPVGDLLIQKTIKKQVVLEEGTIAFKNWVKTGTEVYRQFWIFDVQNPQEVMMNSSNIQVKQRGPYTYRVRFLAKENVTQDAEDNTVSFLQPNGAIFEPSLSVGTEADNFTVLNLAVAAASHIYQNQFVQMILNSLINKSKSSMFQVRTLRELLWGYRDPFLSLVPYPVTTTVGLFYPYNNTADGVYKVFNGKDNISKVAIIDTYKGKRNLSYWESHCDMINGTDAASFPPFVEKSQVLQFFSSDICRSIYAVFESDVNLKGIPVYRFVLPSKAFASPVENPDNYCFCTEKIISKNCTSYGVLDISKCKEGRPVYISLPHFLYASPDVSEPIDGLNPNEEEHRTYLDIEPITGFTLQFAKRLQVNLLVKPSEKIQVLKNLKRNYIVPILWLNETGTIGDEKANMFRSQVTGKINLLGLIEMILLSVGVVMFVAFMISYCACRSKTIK

## HOCl-modified human serum albumin (from UniProt P02768 25-609) (natural protein)
  reduction of the binding of anti-CD36 antibody to the cells: 30%
